Biological target: Rabbit skeletal F-actin (rabbit), P68135

F-actin concentration dependence of the steady-state ATPase activity of bovine β-cardiac myosin S1 (NADH-coupled assay), Kapp in the absence and in the presence of 100 μmol/L F10: 20 µmol/L
B1: bovine β-cardiac myosin S1, Q9BE39 1-1935; P85100 1-199 (domain or fragment)
heavy: MVDAEMAAFGEAAPYLRKSEKERLEAQTRPFDLKKDVFVPDDKEEFVKATILSREGGKVTAETEHGKTVTVKEDQVLQQNPPKFDKIEDMAMLTFLHEPAVLYNLKERYASWMIYTYSGLFCVTINPYKWLPVYNAEVVAAYRGKKRSEAPPHIFSISDNAYQYMLTDRENQSILITGESGAGKTVNTKRVIQYFAVIAAIGDRSKKEQATGKGTLEDQIIQANPALEAFGNAKTVRNDNSSRFGKFIRIHFGATGKLASADIETYLLEKSRVIFQLKAERDYHIFYQILSNKKPELLDMLLITNNPYDYAFISQGETTVASIDDAEELMATDNAFDVLGFTTEEKNSMYKLTGAIMHFGNMKFKLKQREEQAEPDGTEEADKSAYLMGLNSADLLKGLCHPRVKVGNEYVTKGQNVQQVVYAKGALAKAVYERMFNWMVTRINATLETKQPRQYFIGVLDIAGFEIFDFNSFEQLCINFTNEKLQQFFNHHMFVLEQEEYKKEGIEWEFIDFGMDLQACIDLIEKPMGIMSILEEECMFPKATDMTFKAKLFDNHLGKSSNFQKPRNIKGKPEAHFSLIHYAGTVDYNIIGWLQKNKDPLNETVVDLYKKSSLKMLSSLFANYAGFDTPIEKGKGKAKKGSSFQTVSALHRENLNKLMTNLRSTHPHFVRCIIPNETKSPGVIDNPLVMHQLRCNGVLEGIRICRKGFPNRILYGDFRQRYRILNPAAIPEGQFIDSRKGAEKLLGSLDIDHNQYKFGHTKVFFKAGLLGLLEEMRDERLSRIITRIQAQSRGVLSRMEFKKLLERRDSLLIIQWNIRAFMGVKNWPWMKLYFKIKPLLKSAETEKEIALMKEEFGRLKEALEKSEARRKELEEKMVSLLQEKNDLQLQVQAEQDNLADAEERCDQLIKNKIQLEAKVKEMTERLEDEEEMNAELTAKKRKLEDECSELKRDIDDLELTLAKVEKEKHATENKVKNLTEEMAGLDEIIAKLTKEKKALQEAHQQALDDLQAEEDKVNTLTKAKVKLEQHVDDLEGSLEQEKKVRMDLERAKRKLEGDLKLTQESIMDLENDKQQLDERLKKKDFELNALNARIEDEQALGSQLQKKLKELQARIEELEEELEAERTARAKVEKLRSDLSRELEEISERLEEAGGATSVQIEMNKKREAEFQKMRRDLEEATLQHEATAAALRKKHADSVAELSEQIDNLQRVKQKLEKEKSEFKLELDDVTSNMEQIIKAKANLEKMCRTLEDQMNEHRSKAEETQRSVNDLTSQRAKLQTENGELSRQLDEKEALISQLTRGKLTYTQQLEDLKRQLEEEVKAKNALAHALQSARHDCDLLREQYEEETEAKAELQRVLSKANSEVAQWRTKYETDAIQRTEELEEAKKKLAQRLQDAEEAVEAVNAKCSSLEKTKHRLQNEIEDLMVDVERSNAAAAALDKKQRNFDKILAEWKQKYEESQSELESSQKEARSLSTELFKLKNAYEESLEHLETFKRENKNLQEEISDLTEQLGSSGKTIHELEKVRKQLEAEKLELQSALEEAEASLEQEEGKILRAQLEFNQIKAEMERKLAEKDEEMEQAKRNHLRVVDSLQTSLDAETRSRNEALRVKKKMEGDLNEMEIQLSHANRLAAEAQKQVKSLQSLLKDTQIQLDDAVRANDDLKENIAIVERRNNLLQAELEELRAVVEQTERSRKLAEQELIETSERVQLLHSQNTSLINQKKKMEADLSQLQTEVEEAVQECRNAEEKAKKAITDAAMMAEELKKEQDTSAHLERMKKNMEQTIKDLQHRLDEAEQIALKGGKKQLQKLEARVRELENELEAEQKRNAESVKGMRKSERRIKELTYQTEEDRKNLLRLQDLVDKLQLKVKAYKRQAEEAEEQANTNLSKFRKVQHELDEAEERADIAESQVNKLRAKSRDIGTKGLNEE
light: not shown
